Results published in PMC8458281, “Computational modeling and experimental validation of the EPI-X4/CXCR4 complex allows rational design of small peptide antagonists” (Communications Biology, 2021).

Experiments:
Assay in all cases: flow cytometry on cells; 12G5 antibody competition on 293T cells transiently transfected with CXCR4 wt or mutants (IRES-eGFP vector), eGFP-positive cells gated; serially diluted peptide with a constant concentration of CXCR4 antibody clone 12G5, 2 h; bound antibody read; IC50 by nonlinear regression
Conditions in all cases: one partner purified
[1] = target: T1, CXCR4 D97E + V112A (human, UniProt P61073-1 1-352, D97E | V112A)
T1 construct: human CXCR4, isoform 1 or b; also called D97E plus V112A; source: 293T cells, transiently transfected (pcDNA3.1 CXCR4-IRES-eGFP), on cells
T1 sequence (P61073 whole entry D97E/V112A, canonical isoform): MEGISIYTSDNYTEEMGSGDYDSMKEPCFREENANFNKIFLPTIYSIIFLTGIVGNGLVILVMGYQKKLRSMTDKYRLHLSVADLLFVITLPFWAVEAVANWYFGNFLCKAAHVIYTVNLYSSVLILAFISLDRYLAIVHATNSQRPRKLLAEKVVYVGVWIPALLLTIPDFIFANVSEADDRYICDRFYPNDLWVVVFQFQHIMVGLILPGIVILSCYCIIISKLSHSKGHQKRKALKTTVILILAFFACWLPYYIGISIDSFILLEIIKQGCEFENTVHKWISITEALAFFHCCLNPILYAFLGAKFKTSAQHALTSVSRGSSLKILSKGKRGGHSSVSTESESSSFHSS

[2] = target: T2, CXCR4 D97T (human, UniProt P61073-1 1-352, D97T)
T2 construct: human CXCR4, isoform 1 or b; source: 293T cells, transiently transfected (pcDNA3.1 CXCR4-IRES-eGFP), on cells
T2 sequence (P61073 whole entry D97T, canonical isoform): as the sequence (P61073 whole entry D97E/V112A, canonical isoform) above, with E97T, A112V counted along it

[3] = target: T3, CXCR4 D97N (human, UniProt P61073-1 1-352, D97N)
T3 construct: human CXCR4, isoform 1 or b; source: 293T cells, transiently transfected (pcDNA3.1 CXCR4-IRES-eGFP), on cells
T3 sequence (P61073 whole entry D97N, canonical isoform): as the sequence (P61073 whole entry D97E/V112A, canonical isoform) above, with E97N, A112V counted along it

[4] = target: T4, CXCR4 D97E + V112L (human, UniProt P61073-1 1-352, D97E | V112L)
T4 construct: human CXCR4, isoform 1 or b; also called D97E plus V112L; source: 293T cells, transiently transfected (pcDNA3.1 CXCR4-IRES-eGFP), on cells
T4 sequence (P61073 whole entry D97E/V112L, canonical isoform): as the sequence (P61073 whole entry D97E/V112A, canonical isoform) above, with A112L counted along it

[5] = target: T5, CXCR4 V112A + L41A (human, UniProt P61073-1 1-352, L41A | V112A)
T5 construct: human CXCR4, isoform 1 or b; also called L41A plus V112A; source: 293T cells, transiently transfected (pcDNA3.1 CXCR4-IRES-eGFP), on cells
T5 sequence (P61073 whole entry L41A/V112A, canonical isoform): as the sequence (P61073 whole entry D97E/V112A, canonical isoform) above, with L41A, E97D counted along it

[6] = target: T6, CXCR4 E277A (human, UniProt P61073-1 1-352, E277A)
T6 construct: human CXCR4, isoform 1 or b; source: 293T cells, transiently transfected (pcDNA3.1 CXCR4-IRES-eGFP), on cells
T6 sequence (P61073 whole entry E277A, canonical isoform): as the sequence (P61073 whole entry D97E/V112A, canonical isoform) above, with E97D, A112V, E277A counted along it

[7] = target: T7, CXCR4 V112A (human, UniProt P61073-1 1-352, V112A)
T7 construct: human CXCR4, isoform 1 or b; source: 293T cells, transiently transfected (pcDNA3.1 CXCR4-IRES-eGFP), on cells
T7 sequence (P61073 whole entry V112A, canonical isoform): as the sequence (P61073 whole entry D97E/V112A, canonical isoform) above, with E97D counted along it

[8] = target: T8, CXCR4 L41A (human, UniProt P61073-1 1-352, L41A)
T8 construct: human CXCR4, isoform 1 or b; source: 293T cells, transiently transfected (pcDNA3.1 CXCR4-IRES-eGFP), on cells
T8 sequence (P61073 whole entry L41A, canonical isoform): as the sequence (P61073 whole entry D97E/V112A, canonical isoform) above, with L41A, E97D, A112V counted along it

[9] = target: T9, CXCR4 D262A (human, UniProt P61073-1 1-352, D262A)
T9 construct: human CXCR4, isoform 1 or b; source: 293T cells, transiently transfected (pcDNA3.1 CXCR4-IRES-eGFP), on cells
T9 sequence (P61073 whole entry D262A, canonical isoform): as the sequence (P61073 whole entry D97E/V112A, canonical isoform) above, with E97D, A112V, D262A counted along it

[10] = target: T10, CXCR4 D97E + V112A + L41A (human, UniProt P61073-1 1-352, L41A | D97E | V112A)
T10 construct: human CXCR4, isoform 1 or b; also called L41A plus D97E plus V112A; source: 293T cells, transiently transfected (pcDNA3.1 CXCR4-IRES-eGFP), on cells
T10 sequence (P61073 whole entry L41A/D97E/V112A, canonical isoform): as the sequence (P61073 whole entry D97E/V112A, canonical isoform) above, with L41A counted along it

IC50 [1]: 18 µM
IC50 [2]: > 1000 µM
IC50 [3]: > 1000 µM
IC50 [4]: 223 µM
IC50 [5]: 78 µM
IC50 [6]: 8.91 µM
IC50 [7]: 11 µM
IC50 [8]: 132 µM
IC50 [9]: 5.21 µM
IC50 [10]: 48.4 µM
B1: EPI-X4 (Alb408-423) (peptide)
peptide: LVRYTKKVPQVSTPTL
notes: source: synthetic peptide (Fmoc solid-phase synthesis, HPLC-purified)
